In patent US20120213761A1 (MEDIZINISCHE UNIVERSITAET WIEN, published 2012):

Biological target: T1, tumor necrosis factor receptor-associated factor 2 (TRAF2), endogenous, in human cardiac tissue (human, UniProt Q12933 2-501)
T1 construct: Immunoprecipitated from human cardiac tissue or tissue culture lysates with a TRAF2 antibody (BD Pharmingen)
T1 sequence (looked up): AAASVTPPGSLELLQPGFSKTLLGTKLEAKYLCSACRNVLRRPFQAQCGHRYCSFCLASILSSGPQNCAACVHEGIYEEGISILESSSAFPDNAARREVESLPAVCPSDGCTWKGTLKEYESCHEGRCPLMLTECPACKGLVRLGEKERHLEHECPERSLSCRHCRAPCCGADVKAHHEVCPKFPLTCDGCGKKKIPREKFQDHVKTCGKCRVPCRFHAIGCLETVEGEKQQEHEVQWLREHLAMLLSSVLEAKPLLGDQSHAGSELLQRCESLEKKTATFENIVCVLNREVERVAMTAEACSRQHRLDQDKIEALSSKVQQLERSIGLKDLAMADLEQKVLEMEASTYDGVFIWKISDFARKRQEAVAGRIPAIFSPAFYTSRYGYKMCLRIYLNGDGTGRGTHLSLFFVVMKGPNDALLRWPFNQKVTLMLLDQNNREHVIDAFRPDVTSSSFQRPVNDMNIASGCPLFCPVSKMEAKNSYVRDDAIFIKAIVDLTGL
Experiment: co-IP of LV myocardial lysates, Western blot (FIG. 2A)
Description: Human cardiac tissue was lysed in the lysis buffer containing 20 mM Tris (pH 7.5), 135 mM NaCl, 2 mM ethylenediaminetetraacetic acid (EDTA), 2 mM dithiothreitol (DTT), 25 mM β-glycerophosphate, 2 mM sodium pyrophosphate, 10% glycerol, 1% Triton X-100, 1 mM sodium orthovanadate, 10 mM NaF and 1 mM phenylmethylsulfonyl fluoride (PMSF) supplemented with complete protease inhibitor cocktail (Roche Applied Science, Indianapolis, Ind., USA) at 4 C as described (Aharinejad et al., 2005). Lysates were centrifuged (15 000 g) at 4 C for 15 min. For identify GSTP1-TRAF2 complexes formation proteins (500 μg) were immunoprecipitated with TRAF2 antibody (0.5 μg, BD Pharmingen, San Diego, Calif.). […]
Protein lysates (50 μg/lane) were separated by SDS-PAGE (10%) prior to electrophoretic transfer onto a Nitrocellulose membrane (Bio-Rad, Hercules, Calif.) as described (Aharinejad et al., 2005). […] Protein loading was assessed by Ponceau S staining and immunodetection was performed by chemiluminescence (Supersignal-West-Pico, Pierce, Rockford, Bands were quantified by ImageQuant software and specific protein signals were normalized to loading controls and expressed as arbitrary units. The average value of three measurements in each sample was used for data analysis.

B1: Glutathione S-transferase P1 (GSTP1), endogenous, in human left ventricular myocardial lysates (enzyme)
chain: PPYTVVYFPVRGRCAALRMLLADQGQSWKEEVVTVETWQEGSLKASCLYGQLPKFQDGDLTLYQSNTILRHLGRTLGLYGKDQQEAALVDMVNDGVEDLRCKYISLIYTNYEAGKDDYVKALPGQLKPFETLLSQNQGGKTFIVGDQISFADYNLLDLLLIHEVLAPGCLDAFPLLSAYVGRLSARPKLKAFLASPEYVNLPINGNGKQ
notes: also called GST-pi; GSTP1-1
- binding result: binds
